Data published in the domain aggregation screens of Martell et al. (2025).

Experiment: soluble fraction after stress (log2 fold change); higher = more stays soluble; pooled small domains, quantitative proteomics
Conditions: stress: 75 degC
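Further: 20 min heating vs room temperature control held 20 min.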

Sequence	soluble fraction (log2)
HMLDSNILTLIKELKIRHHFTATQTHQLEKVIQQAHALGLDNSEIRSLANSSPSAKSLINDLNQKLEPLRL	-1.44
HMLDTELEANLRSQRDQKLVEELDPIVTNPLRWAELTSDKQTEWTQYRTDLLNVPQQSGFPTNVTWPEKP	0.216
HMLDVFSAEQVADVLSVSKRNLETWANNGKLIPDFIHGEVALYSKKQLEQFEQFQRFFNSSWDAERLIQP	-1.54
HMLDVGDQLVKKLKDNDSLDFHFVNSKEANKGLKDGDYYMVITIPSNFSKNATTLLDKNPKKMVLNYTTNP	-0.0273
HMLEAKQIQDNWESLIKLIEDNFTGERKENLLKMYTHFQDRMMFAPASSKEHFHNAFPGGYVEHVL	-0.369
HMLEDIDNSIKKEIILEHYDKMLEFHGDYGAIIFRKLLHAYSKGYTGANEFRDLVNQISDKNIMRDLIESF	-0.947
HMLEEIIDVKRFLVENVRGVSEKTALAILSEFGDKTMDVLRNSPNELYRIKGMSGKRIEVIKDAIANATAS	-0.568
HMLEINTIIGNNLKKIRQEKKLTLDELAGITGVSKGMLSQIEKGTTNPTINTIWKISNGLNVPYTYLLEDD	-0.513
HMLENIVFTNKFKNKRLDVLLVDMKLVSSRQKAVSLIMRGNVFVEEERADKPGKIIKLNQTISLKK	-2.78
HMLERPLKLKSHYVSAINEKVAVQFQAGEERKSIMGTLTEVNQDTIVIDDRGSVTEIPFKSIIRAKTVF	-0.621
HMLESPVEAIIRQIKQLITNGKLKPGDRLPAERLLAENFGVGRGYVREAIMKLEFFGLLKTSPQSGTYVAG	-1.39
HMLETIDIFKVTGGEPFLSKDFLEILDLAIEKDLAKNITLMITTNASKFVKKILDKFIHFKRVEFTVS	0.407
HMLFGKKYLGKVPNDASGRISLWNDIVKHHQELQNIRAIENFTSDNVTVAQGDTKKAVVVTDYVT	-0.286
HMLFQGDTPAENIILEILSKNGTTASDSIIKQSGLSVSDFNQAATMLEIKGLISNNGGNIWSL	-0.0591
HMLFVKLSDAQRSMFGAKLARDARIQSEYAQKLPSENYEVFGKALADMLLDETHFKTFYPLLVEYGYTQPK	-1.32
HMLGDIYISIPRAKLQAEEYGHSFKRELAFLAVHGFYHLLGYDHQTKEEEEVMFGKQEEVLAEFDIKR	-0.0616
HMLGKNEAKEYKVAYGDIGKMPALIMGLVPLPKPPVVDERLRTLYVTATPEQHREIEAIMNRI	0.236
HMLGKSNAERQLDLILGAIERSITGVSRSKLMQAYHLDSRGATAAFETLEQRGLITRSKSGRTELLIPTRV	-1.78
HMLGWEDVIQFEEVKGYGQHIWRDGNHLYYVTEEGGIAPQRVVYELPNELFALLESGERTQLEILSKLQ	-2.51
HMLHNEFINDRIQSAINNLSEHFKIVIILRDIQELSYEEISNIVEVPLGTIKSRINRARIQLQAELLDL	0.215
HMLILDTDGRYVIKRGDSLSEILEKIANGSNINLNLLKRAFVTANPKAFKRANPNWMYANAR	-0.249
HMLIPTISVTKEGQLRFENIPVSWEELGTRLRDVSDLDKIKIYADAESDALTISEIMKTAANVGIVQFVLV	-1.03
HMLIRKGVVSFFNDAKGYGFIKDLVTQESAFVHVNSLSETIKEHDKVTFEVEMGHKGANAVNVKLVK	-1.09
HMLIVLKPNVSQEEIDHIVDKIRSLSLEPHVSTGVQRTIITVIGDEDVIREQPLEALAGVESVKSILKP	-0.358
HMLKGTVKWFNESKGFGFIEQEEGKDVFVHYSAITGSGFKTLNEGDKVQFEIVDGPKGPAAANVSK	0.036
HMLKKGDQVYIISGKDKGKLGVVSQIVSEERILVDGINLAKKHVKPNPNKNETGGVVEKEMPIHASNVMI	0.243
HMLKLTDRQKVILSILMSDGEKTASWIASQLGVGLRSVQLDLSYLRNNGFIKKASKSTHSAWIVLKK	-4.1
HMLKPIHKDWSPNGDAKEILLKAGITEEFIQKELPEFIMYWSERNEESDIWNSKFIAHIRRRWGRFS	-1.64
HMLKPVVLLGARGLTDAVEKEVERALDEHGLIKIHVPSDDREERDEIYTTLADKLNAARIQAIGKMLVLW	-0.0344
HMLKSGSAVAQARDVILEKGVPVHINEILDALGKGDTREAKASLTSSLAAYVRRGEIFTRPAPNTFGLVEL	-0.592
